Data published in patent US20230295310A1 (ABCELLERA BIOLOGICS, published 2023).

Experiments:
[1] = target: T1, human CD3 expressed on cells (human, UniProt P07766 23-207; P04234 22-171; P09693 23-182); experiment: flow cytometry, 25 nM
T1 construct: whole, on cells; CD3 complex on Jurkat cells and on human primary T cells
Procedure: (§1) Purified antibodies were confirmed to bind CD3 expressed on cells using the CytoFLEX S or LX flow cytometers (Beckman Coulter). Antibodies were diluted to 25 nM in FACS buffer (PBS+2% FBS) and were incubated with CD3-expressing cells for 30 minutes at 4° C. […] The median fluorescence intensity of the binding signal for each antibody was normalized to the isotype control to obtain a fold over isotype value. An antibody with a fold over isotype (FOI) of ≥10 was considered to be positive for binding.

[2] = target: T2, cynomolgus monkey CD3 expressed on primary T cells (cynomolgus monkey, UniProt Q95LI5 22-198; Q95LI8 22-171; Q95LI7 23-181); experiment: flow cytometry, 25 nM, cyno primary T cells
T2 construct: whole, on cells; CD3 complex on purified cynomolgus monkey T cells; also called cyno CD3
T2 sequence (Q95LI5 22-198, chain 1 of 3): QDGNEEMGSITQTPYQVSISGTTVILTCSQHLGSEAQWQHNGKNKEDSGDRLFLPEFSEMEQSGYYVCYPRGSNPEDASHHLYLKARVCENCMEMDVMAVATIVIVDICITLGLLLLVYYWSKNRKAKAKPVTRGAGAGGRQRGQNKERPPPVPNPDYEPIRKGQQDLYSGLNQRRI
T2 sequence (Q95LI8 22-171, chain 2 of 3): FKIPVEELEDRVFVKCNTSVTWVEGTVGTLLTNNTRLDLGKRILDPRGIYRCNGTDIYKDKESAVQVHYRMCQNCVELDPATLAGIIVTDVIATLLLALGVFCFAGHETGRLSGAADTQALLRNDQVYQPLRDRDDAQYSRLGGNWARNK
T2 sequence (Q95LI7 23-181, chain 3 of 3): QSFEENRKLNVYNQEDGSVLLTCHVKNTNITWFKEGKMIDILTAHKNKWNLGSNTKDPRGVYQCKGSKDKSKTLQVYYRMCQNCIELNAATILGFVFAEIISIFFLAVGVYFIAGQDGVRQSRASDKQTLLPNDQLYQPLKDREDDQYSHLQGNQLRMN
Procedure: as §1

T1 sequence (P07766 23-207, chain 1 of 3): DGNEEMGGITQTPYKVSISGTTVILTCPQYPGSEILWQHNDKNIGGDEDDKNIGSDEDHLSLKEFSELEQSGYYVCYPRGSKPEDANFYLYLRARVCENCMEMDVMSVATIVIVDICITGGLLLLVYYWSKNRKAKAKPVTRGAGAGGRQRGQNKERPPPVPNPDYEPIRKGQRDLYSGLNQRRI
T1 sequence (P04234 22-171, chain 2 of 3): as the sequence (Q95LI8 22-171, chain 2 of 3) above, with V5I, K15N, V20I, T32S, N33D, N34I, A64T, N74S, L83V, R141H counted along it
T1 sequence (P09693 23-182, chain 3 of 3): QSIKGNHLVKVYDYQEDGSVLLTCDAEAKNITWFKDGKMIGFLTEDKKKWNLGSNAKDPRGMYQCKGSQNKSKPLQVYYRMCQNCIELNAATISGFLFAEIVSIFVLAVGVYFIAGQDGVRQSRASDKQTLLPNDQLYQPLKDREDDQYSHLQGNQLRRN

Row | Binder | Human primary T Cell Binding (FOI) [1] [FOI] | Jurkat Cell Binding (FOI) [1] [FOI] | binding result [2]
1 | mAb 54 (antibody, V domains shown) VH: EVQLEESGGGLVQPGGSLRLSCAASGFTFSRYSMNWVRQAPGKGLEWFSYISSSSRTIYYADSVKGRFTMSRDNAKNSLYLQMNSLRDEDTAVYFCARGDYYDSEGMDVWGKGTTVTVSS VL: DIQMTQSPSTLSASVGDRVTITCRASQTITTWLAWYQQKPGKAPKLLIYKASTLESGVPSRFSGSGSGTEFTLTISSLQPDDFATYHCQQYKTFSYTFGQGTKLDIK | 98.5 | 111 | no binding (tested: FOI >=10 = positive)
2 | mAb 46 (antibody, V domains shown) VH: EGQLVESGGGLVQPGGSLRLSCVASGFTLSSYTLNWVRQAPGKGLEWVSYISSTSRTIYYSDSVKGRFTISRDNAKNSLYLQMNSLRDEDTALYYCAREDYYDSSGFDYWGQGTLVTVSS VL: AIRMTQSPSSFSASTGDRVTITCRASQGISSYLAWYQQKPGKAPKLLIYTASTLQSGVPSRFSGSGSGTDFTLTIRSLQSEDFATYYCQQYYSYPRTFGQGTKVEIK | 96.9 | 107 | no binding (tested: FOI >=10 = positive)
3 | mAb 49 (antibody, V domains shown) VH: EVQLVESGGGLVPPGGSLRLSCVASGFTLRSYTMNWVRQAPGQGLEWISYISSTSRTIYYSDSVKGRFTISRDNAKNSLYLQVNSLRDEDTALYYCAREDYYDSSGFDCWGQGTLVTVSS VL: AIRMTQSPSSFSASTGDRVTITCRASQGIFNYLAWYQQKPGKAPKLLIYSTSTLQSGVPSRFSGSGSGTDFTLTIRGLQSEDLATYYCQQYYSFPRTFGQGTKVDIK | 191 | 178 | no binding (tested: FOI >=10 = positive)
4 | mAb 51 (antibody, V domains shown) VH: EVQLVESGGGLVQPGGSLRLSCAASGFTLSSYTMNWVRQAPGKGLEWVSYISSSSRTIYYSDSVKGRFSISRDNAKNSLYLQMNSLRDEDTALYYCAREDYYDSSGFDNWGQGTLVTVSS VL: AIRMTQSPSSFSASTGDRVTITCRASQGISSYLAWYQQKPGKAPKLLIYTASTLQSGVPSRFSGSGSGTDFTLTIRSLQSEDFATYYCQQYYSYPRTFGQGTKVEIK | 102 | 99.8 | no binding (tested: FOI >=10 = positive)
5 | mAb 109 (antibody, V domains shown) VH: QVQLVESGGGVVQPGRSLRLSCVASGFPFRSYGMHWVRQAPGKGLEWVAFIWYDGSNKYYADSVRGRFTISRDNFKKMVYLQMNSLRAEDTAVYYCARDLAGIYAFDVWGQGTVVTVSS VL: EIVMTQSPATLSVSPGERATLSCRASQSVSSNLAWYQQKPGQAPRLLIYGASTRATGIPARFSGSGSGTEFTLTVSSLQSEDFAIYYCQQYNNWRPLTFGGGTKVEIK | – | – | no binding (tested: FOI >=10 = positive)
6 | mAb 42 (antibody, V domains shown) VH: QAQLVQSGSELKKPGASVKVSCKASGYTFTKHSMNWVRQAPGQGLEWMGWINTNTGNPTYAQGFTGRFVFSLDTSVTTAYLQISSLKAEDTAVYYCAREGDYDFWSGFFNFDYWGQGTLVTVSS VL: DIQMTQSPSSLSASVGDRVTITCRASQGIRNDLGWYQQKPGKAPKRLIYAASSLQSGVPSRFSGSGSGAEFTLTISSLQPEDFATYYCLQHNSYPRTFGQGTKVEIK | 96.2 | 111 | no binding (tested: FOI >=10 = positive)
7 | mAb 53 (antibody, V domains shown) VH: QVQLVQSGAEVKKPGASVKVSCKASGYTFTSYDINWVRQATGQGLEWMGWMNPKSGKTGYAQKFQGRITMTRNTPISTVYMDLSSLRSEDTAVYYCAREGHYDFWTGYYSFDYWGQGTLVTVSS VL: DIQMTQSPSSLSASVGDRVTITCRASQGIRNDLGWYQQTPGKAPKRLIYAASSLQSGVPSRFSGSGSGTEFTLTISSLQPEDFATYYCLQHYSYPYTFGQGTKLEIK | 34.8 | 44.6 | no binding (tested: FOI >=10 = positive)
8 | mAb 52 (antibody, V domains shown) VH: QVQLVQSGAEVKKPGASVKVSCKASGYTFTSHDINWVRQATGQGLEWMGWLNPNSGKTGYAQKFQGRVTMARDTSMYTADMELSSLRFEDTAVYYCARVGHYDMWPGFFSFDYWGQGTLVTVSS VL: DIQMTQSPSSLSASVGDRIIITCRASQDIRNDLGWYQQKPGKAPKRLIYAASSLQSGVPSRFSGSRSGTEFTLTISSLHPEDFATYYCLQHRSYPYTFGQGTNLEIK | 185 | 181 | no binding (tested: FOI >=10 = positive)
9 | mAb 55 (antibody, V domains shown) VH: QVQLEQSGAEVKKPGASVKVSCKTSGYIFANYDINWVRQATGQGLEWMGWMNPKSGKAGYAQKFQGRVTMTSNTPINTAYMELSSLRSEDTAVYYCAREGHYDFWRGFYSFDYWGQGILVTVSS VL: DIQMTQSPSSLSASVGDRVTITCRASQGIRNDLGWYQQKPGKAPKRLIYTASSLQSGVPSRFSGSGSGTEFTLTISSLQPEDFATYFCLQYNTYPYTFGQGTKLEIK | 104 | 151 | no binding (tested: FOI >=10 = positive)
10 | mAb 50 (antibody, V domains shown) VH: QAQLVQSGSELKKPGASVKVSCKASGYTFTRHAMNWVRQAPGQGLEWMGWINTNTGNPTYAQGFTGRFVFSLDTSVTTAYLQISSLKAEDTAVYYCAREGDYDFWSGFFNFDYWGQGTLVTVSS VL: DIQMTQSPSSLSASVGDRVTITCRASQGIRNDLGWFQQKPGKAPTRLIYAASSLQSGVPSRFSGSGSGAEFTLTISSLQPEDFATYYCLQHNSYPRTFGQGTKVEIK | 86.4 | 92.5 | no binding (tested: FOI >=10 = positive)
11 | mAb 44 (antibody, V domains shown) VH: QAQLVQSGSELKKPGASVKVSCKASGYTFTRHAMNWVRQAPGQGLEWMGWINTNTGNPTYAQGFTGRFVFSLDTSVSTAYLKISSLKAEDTAVYYCVREGDYDFWSGFFNFDYWGQGTLVTVSS VL: DIQMTQSPSSLSASVGDRVTITCRASQGIRNDLGWFQQKPGKAPTRLIYAASSLQSGVPSRFSGSGSGAEFTLTISSLQPEDFATYYCLQHNSYPRTFGQGTKVEIK | 110 | 131 | no binding (tested: FOI >=10 = positive)
12 | mAb 47 (antibody, V domains shown) VH: QAQLVQSGSELKKPGASVKVSCKASGYTFTKHSMNWVRQAPGQGLEWMGWINTNTGNPTYAQGFTGRFVFSLDTSVTTAYLQISSLKAEDTAVYYCAREGDYDFWSGFFNFDYWGQGTLVTVSS VL: DIQMTQSPSSLSASVGDRVTITCRASQGIRNDLGWYQQKPGKAPKRLIYAASSLQSGVPSRFSGSGSGTEFTLTISSLQPEDFATYYCLQHNSYPRTFGQGTKVEIK | 136 | 112 | no binding (tested: FOI >=10 = positive)
13 | mAb 65 (antibody, V domains shown) VH: QVQLVESGGGVVQPGRSLRLSCAASGFTFSGYGMHWVRQAPGKGLDWVAIIYYNGNNKYYADSVKGRFTISRDNSKNTLYLQMNSLRAEDTAVYYCARGGGYNWFDPWGQGTLVIVSS VL: not shown | 199 | 184 | no binding (tested: FOI >=10 = positive)
14 | mAb 81 (antibody, V domains shown) VH: QVQLAESGGGVVQPGRSLRLSCAASGFTFSGYGMHWVRQAPGKGLDWVAIIYYDGKNKYYADSVKGRFTISRDNSKNTLYLQMNSLRAEDTAVYYCARGGGYNWFDPWGQGTLVTVSS VL: DIQMTQSPSSLSASVGDRVTITCRPSQTISNYLNWYQQDPGKAPKLLIYAASSLQSGVPSRFSGSGSGTDFTLTISSLQPEDFATYYCQQSYSTPITFGRGTRLEIK | 158 | 165 | no binding (tested: FOI >=10 = positive)
15 | mAb 86 (antibody, V domains shown) VH: QVQLAESGGGVVQPGRSLRLSCEASGFTFSGYGMHWVRQAPGKGLDWVAIIYYDGKNKYYADSVKGRFTISRDNSKNTLYLQMNSLRAEDTAVYYCARGGGYNWFDPWGQGTLVTVSS VL: DIQMTQSPSSLSASVGDRVTITCRPSQTISKYLNWYQQKPGKAPKLLIYAASSLQSGVPSRFSGSGSGTDFTLTISSLQPEDFATYYCQQSYITPITFGRGTRLEIK | 189 | 175 | no binding (tested: FOI >=10 = positive)
16 | mAb 83 (antibody, V domains shown) VH: QVQLVESGGGVVQPGRSLRLSCAASGFTFSGYGMHWVRQAPGKGLDWVAIIYYNGNNKYYADSVKGRFTISRDNSKNTLYLQMNSLRAEDTAVYYCARGGGYNWFDPWGQGTLVIVSS VL: DIQMTQSPSSLSASVGDRVTITCRPSQIIINYLNWYQQKPGKAPKLLIYAASSLQSGVPSRFSGSGSGTDFTLTISSLQPEDFATYYCQQSYSTPFTFGRGTRLEIK | 173 | 161 | no binding (tested: FOI >=10 = positive)
